Data reported in publication PMC9798703.
Where two headings read alike, the source gives them in different places.

B1: rERE duplex (dsRNA)
RNA 1: CAGGUCAGAGUGACCUGAUU
RNA 2: AAUCAGGUCACUCUGACCUG
B2: GREB1 (structured_RNA)
RNA: GGGAUGCCGAAGAGUUGAUGUCAAUCUUUUUUUCCUAAGAAAAAAAGUCCGCGAGUAUUCC

Experiments:
Assay in all cases: fluorescence anisotropy
[1] = molecular target: T1, ERα DBD-Ext (Homo sapiens, UniProt P03372)
[2] = molecular target: T1, ERα DBD-Ext; remark: listed apart in the source
[3] = molecular target: T1, ERα DBD-Ext; remark: listed apart in the source
[4] = molecular target: T1, ERα DBD-Ext; remark: listed apart in the source

| Binder | Kd [1] [nM] | binding result [3] | further results |
| --- | --- | --- | --- |
| B1 | 1100 |  |  |
| CAGGUCAGAGUGACCUGAUUCGUCAGGUCACUCUGACCUG (structured_RNA) [rERE] | 130 ± 20 |  |  |
| AUACAACAUACAACAUACAACAUACAACAUACAAC (ssRNA) [ssRNA (env8)] |  |  | Kd [2]: ~1100 nM |
| GGGAUCUGCCUGCAUCCUGACGCGGUGCCGUCCC (structured_RNA) [TFF1] |  | binds |  |
| B2 |  | binds |  |
| UCAGGUCACUCUGACCUGGCUUCAGGUCAGAGUGACCUGA (structured_RNA) [rERE loop rescue] |  |  | binding result [4]: binds |
